Test results: publication PMC3796546

Experiments:
Assay in all cases: co-IP with mass spectrometry
[1] = molecular target: RPL36A; settings: cross-linked in vivo with formaldehyde, p value 0.13485
[2] = molecular target: PFK2; settings: cross-linked in vivo with formaldehyde, p value 0.14162
[3] = molecular target: ENO1; settings: cross-linked in vivo with formaldehyde, p value 0.14901
[4] = molecular target: RPL13A/B; settings: cross-linked in vivo with formaldehyde, p value 0.05060
[5] = molecular target: ARF2; settings: cross-linked in vivo with formaldehyde, p value 0.05060
[6] = molecular target: TY1B-ER1; settings: cross-linked in vivo with formaldehyde, p value 0.21132
[7] = molecular target: REP1; settings: cross-linked in vivo with formaldehyde, p value 0.25926
[8] = molecular target: TY1B-BR; settings: cross-linked in vivo with formaldehyde, p value 0.09425
[9] = molecular target: HOM2; settings: cross-linked in vivo with formaldehyde, p value 0.02371
[10] = molecular target: ADO1; settings: cross-linked in vivo with formaldehyde, p value 0.02371
[11] = molecular target: HHF1; settings: cross-linked in vivo with formaldehyde, p value 0.08671
[12] = molecular target: SUP35; settings: cross-linked in vivo with formaldehyde, p value 0.08282

ratio to parent [1]: > 4
other: sum ([1]; parent: 0): 4
ratio to parent [2]: 6
other: sum ([2]; parent: 1): 6
ratio to parent [3]: 3.5
other: sum ([3]; parent: 2): 7
ratio to parent [4]: 2.2
other: sum ([4]; parent: 5): 11
ratio to parent [5]: 2.5
other: sum ([5]; parent: 2): 5
ratio to parent [6]: > 6
other: sum ([6]; parent: 0): 6
ratio to parent [7]: 2
other: sum ([7]; parent: 2): 4
ratio to parent [8]: > 9
other: sum ([8]; parent: 0): 9
ratio to parent [9]: 2
other: sum ([9]; parent: 4): 8
ratio to parent [10]: 5
other: sum ([10]; parent: 1): 5
ratio to parent [11]: 2
other: sum ([11]; parent: 4): 8
ratio to parent [12]: 2.14
other: sum ([12]; parent: 7): 15
Substance: N-terminal 3xHA-tagged wild-type Irc20 (from UniProt Q06554) C1239A
